The target in this assay is T1, human recombinant GIP receptor (human, UniProt P48546 22-466).
T1 construct: whole, on cells; Assayed as washed membranes of CHO-K1 cells expressing the receptor; also called hGIP receptor
T1 sequence (looked up): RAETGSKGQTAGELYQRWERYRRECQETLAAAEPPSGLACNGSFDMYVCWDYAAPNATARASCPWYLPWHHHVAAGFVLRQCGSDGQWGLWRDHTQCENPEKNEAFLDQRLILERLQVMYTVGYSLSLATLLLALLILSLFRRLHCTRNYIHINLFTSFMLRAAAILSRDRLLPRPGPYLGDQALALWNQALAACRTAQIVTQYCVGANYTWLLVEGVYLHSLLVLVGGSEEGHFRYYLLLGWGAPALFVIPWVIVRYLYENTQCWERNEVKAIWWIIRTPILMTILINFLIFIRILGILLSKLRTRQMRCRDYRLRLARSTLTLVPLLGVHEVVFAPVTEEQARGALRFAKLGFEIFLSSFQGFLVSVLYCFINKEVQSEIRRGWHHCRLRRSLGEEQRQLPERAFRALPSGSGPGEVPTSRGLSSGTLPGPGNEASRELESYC
Kind of assay: displacement of [125I]GIP, membranes of CHO-K1 cells expressing human GIP receptor. The protocol: Membranes for in vitro receptor binding assays were prepared by homogenizing the CHO—K1 clonal cells expressing the human recombinant GIP receptor, with a Brinkman Polytron (setting 6, 15 sec), in ice-cold 50 mM Tris-HCl and then subjected to two centrifugations at 39,000 g for 10 minutes, with a resuspension in fresh buffer in between. For the assay, aliquots of the washed membrane preparations were incubated (100 minutes at 25° C. with 0.05 nM [¹²⁵1]GIP (2200 Ci/mmol) in 50 mM Tris-HCl, 0.1 mg/ml bacitracin, and 0.1% BSA. The final assay volume was 0.5 ml. The incubations were terminated by rapid filtration through GF/C filters (pre-soaked in 0.5% polyethylenimine) using a Brandel filtration manifold. Each tube and filter were then washed three times with 5-ml aliquots of ice-cold buffer.
Specific binding was defined as the total radioligand bound minus that bound in the presence of 1000 nM GIP.
In general terms: In a radioligand displacement assay an active substance lowers the binding of a labelled ligand.

Take FXEGTFISDYXIAMDKIHQQDFVNWLLAQKGKKNDWKHNIXQ (4CN-Phe at 1; Aib at 2; A5c at 11 and 41) [(4CN-Phe^1, Aib^2, A5c^11, 41)hGIP(1-42)-OH]: the Ki amounted to 14.4 nM.
In the case of YXEGTFISDYXIAXDKIHQQDFVNWLLAQKGKKNDWKHNITQ (3Br-Tyr at 1; Aib at 2; A5c at 11; Nle at 14) [(3Br-Tyr^1, Aib^2, A5c^11, Nle^14)hGIP(1-42)-OH], the Ki came to 0.6 nM.
For the molecule FXEGTFISDYXIAMDKIHQQDFVNWLLAQKGKKNDWKHNIXQ (4F-Phe at 1; Aib at 2; A5c at 11 and 41) [(4F-Phe^1, Aib^2, A5c^11, 41)hGIP(1-42)-OH], the Ki turned out to be 5.82 nM.
In the case of FXEGTFISDYXIAMDKIHQQDFVNWLLAQKGKKNDWKHNIXQ (3F-Phe at 1; Aib at 2; A5c at 11 and 41) [(3F-Phe^1, Aib^2, A5c^11, 41)hGIP(1-42)-OH] it was 5.43 nM.
With YXEGTFISDYXIAXDKIHQQDFVNWLLAQKGKKNDWKHNITQ (3,5I-Tyr at 1; Aib at 2; A5c at 11; Nle at 14) [(3,5I-Tyr^1, Aib^2, A5c^11, Nle^14)hGIP(1-42)-OH], the Ki is 77.9 nM.
With HXEGTFISDYXIAXDKIHQQDFVNWLLAQKGKKNDWKHNITQ (Aib at 2; A5c at 11; Nle at 14) [(His^1, Aib^2, A5c^11, Nle^14)hGIP(1-42)-OH] the figure was 3.18 nM.
With YXEGTFISDYXIAXDKIHQQDFVNWLLAQKGKKNDWKHNITQ (3I-Tyr at 1; Aib at 2; A5c at 11; Nle at 14) [(3I-Tyr^1, Aib^2, A5c^11, Nle^14)hGIP(1-42)-OH], the inhibition constant Ki is 5.03 nM.
As to YXEGTFISDYXIAXDKIHQQDFVNWLLAQKGKKNDWKHNITQ (3Cl-Tyr at 1; Aib at 2; A5c at 11; Nle at 14) [(3Cl-Tyr^1, Aib^2, A5c^11, Nle^14)hGIP(1-42)-OH], the Ki is 0.42 nM.
For the molecule YXEGTFISDYSIXXDKIHQQDFVNWLLAQKGKKNDWKHNITQ (3,5Br-Tyr at 1; Aib at 2 and 13; Nle at 14) [(3,5Br-Tyr^1, Aib^2, 13, Nle^14)hGIP(1-42)-OH], the inhibition constant (Ki) was found to be 4.26 nM.
With YXEGTFISDYXIAXDKIHQQDFVNWLLAQKGKKNDWKHNITQ (3,5Br-Tyr at 1; Aib at 2; A5c at 11; Nle at 14) [(3,5Br-Tyr^1, Aib^2, A5c^11, Nle^14)hGIP(1-42)-OH], the Ki is 21.8 nM.
With FXEGTFISDYXIAMDKIHQQDFVNWLLAQKGKKNDWKHNIXQ (3OH-Phe at 1; Aib at 2; A5c at 11 and 41) [(3OH-Phe^1, Aib^2, A5c^11, 41)hGIP(1-42)-OH], the inhibition constant (Ki) turned out to be 7.52 nM.
For FXEGTFISDYXIAMDKIHQQDFVNWLLAQKGKKNDWKHNITQH (4Me-Phe at 1; Aib at 2; A5c at 11) [(4Me-Phe^1, Aib^2, A5c^11, His^43)hGIP(1-43)-OH], the inhibition constant Ki turned out to be 9.13 nM.
On to YXEGTFISDYXIAXDKIHQQDFVNWLLAQKGKKNDWKHNITQH (2,6Me-Tyr at 1; Aib at 2; A5c at 11 and 14) [(2,6Me-Tyr^1, Aib^2, A5c^11, 14, His^43)hGIP(1-43)-OH], for which the Ki came to 50.2 nM.
As for YAEGTFISDYXIAXDKIHQQDFVNWLLAQKGKKNDWKHNITQH (3Cl-Tyr at 1; D-Ala at 2; A5c at 11 and 14, X stands for a non-natural residue) [(3Cl-Tyr^1, D-Ala^2, A5c^11, 14, His^43)hGIP(1-43)-OH], the Ki was 5.06 nM.
In the case of YXEGTFISDYXIAXDKIHQQDFVNWLLAQKGKKNDWKHNITQH (2,6Me-Tyr at 1; Aib at 2; A5c at 11; Nle at 14) [(2,6Me-Tyr^1, Aib^2, A5c^11, Nle^14, His^43)hGIP(1-43)-OH] it was 39 nM; in that of YAEGTFISDYXIAXDKIHQQDFVNWLLAQKGKKNDWKHNITQH (3Cl-Tyr at 1; D-Ala at 2; A5c at 11; Nle at 14, X stands for a non-natural residue) [(3Cl-Tyr^1, D-Ala^2, A5c^11, Nle^14, His^43)hGIP(1-43)-OH], 8.89 nM.
In the case of YAEGTFISDYXIAXDKIHQQDFVNWLLAQKGKKNDWKHNITQC (3Cl-Tyr at 1; D-Ala at 2; A5c at 11 and 14; Cys(succinimide) at 43, X stands for a non-natural residue) [[3Cl-Tyr^1, D-Ala^2, A5c^11, 14, Cys^43(succinimide)]hGIP(1-43)-OH], the Ki amounted to 1.41 nM.
For YXEGTFISDYXIAMDKIHQQDFVNWLLAQKGKKNDWKHNITQH (2,6Me-Tyr at 1; Aib at 2; A5c at 11) [(2,6Me-Tyr^1, Aib^2, A5c^11, His^43)hGIP(1-43)-OH], the inhibition constant (Ki) amounted to 35 nM.
In the case of YAEGTFISDYXIAXDKIHQQDFVNWLLAQKGKKNDWKHNITQC (3Cl-Tyr at 1; D-Ala at 2; A5c at 11; Nle at 14; Cys(succinimide) at 43, X stands for a non-natural residue) [[3Cl-Tyr^1, D-Ala^2, A5c^11, Nle^14, Cys^43(succinimide)]hGIP(1-43)-OH], the Ki was 9.13 nM.
YXEGTFISDYXIAXDKIHQQDFVNWLLAQKGKKNDWKHNITQC (3Cl-Tyr at 1; Aib at 2; A5c at 11; Nle at 14) [(3Cl-Tyr^1, Aib^2, A5c^11, Nle^14, Cys^43)hGIP(1-43)-OH]: the Ki amounted to 0.83 nM.
YAEGTFISDYXIAXDKIHQQDFVNWLLAQKGKKNDWKHNITQK (3Cl-Tyr at 1; D-Ala at 2; A5c at 11 and 14; Lys(N-C(O)-(CH2)10-CH3) at 43, X stands for a non-natural residue) [[3Cl-Tyr^1, D-Ala^2, A5c^11, 14, Lys^43(N-C(O)-(CH2)10-CH3)]hGIP(1-43)-OH]: the Ki is 9.06 nM.

B1: [3Cl-Tyr^1, Aib^2, A5c^11, Nle^14, Cys^43(succinimide-N-(CH2)2-C(O)NH-(CH2)3-O-CH2-CH(20K PEG)-CH2-20K PEG)]hGIP(1-43)-NH2 (peptide)
peptide: YXEGTFISDYXIAXDKIHQQDFVNWLLAQKGKKNDWKHNITQC
modifications: 3Cl-Tyr at 1; Aib at 2; A5c at 11; Nle at 14; Cys(succinimide-N-(CH2)2-C(O)NH-(CH2)3-O-CH2-CH(20K PEG)-CH2-20K PEG) at 43; C-terminal amide
notes: Branched PEGylated analogue
With B1, the Ki turned out to be 42.4 nM.
YAEGTFISDYXIAXDKIHQQDFVNWLLAQKGKKNDWKHNITQK (3Cl-Tyr at 1; D-Ala at 2; A5c at 11; Nle at 14; Lys(N-C(O)-(CH2)10-CH3) at 43, X stands for a non-natural residue) [[3Cl-Tyr^1, D-Ala^2, A5c^11, Nle^14, Lys^43(N-C(O)-(CH2)10-CH3)]hGIP(1-43)-OH]: the Ki amounted to 6.64 nM.
As for XXEGTFXSDYSIAMDKIHQQDFVNWLLAQK (4Hppa at 1; Aib at 2; A5c at 7; C-terminal amide) [(4Hppa^1, Aib^2, A5c^7)hGIP(1-30)-NH2], the inhibition constant (Ki) is 5 nM.

A word on the Ki: it is the dissociation constant of the complex between target and ligand, obtained from inhibition or displacement.

The values above are taken from patent US20150175665A1 (IPSEN PHARMA S A S, published 2015).
